Results taken from publication PMC3001049.
Where two headings read alike, the source gives them in different places.

Key:
[1] = target: T1, XPA (human, UniProt P23025 1-273); test: photocrosslinking
[2] = target: T1, XPA; test: photocrosslinking; remark: listed apart in the source

T1 sequence (P23025 whole entry): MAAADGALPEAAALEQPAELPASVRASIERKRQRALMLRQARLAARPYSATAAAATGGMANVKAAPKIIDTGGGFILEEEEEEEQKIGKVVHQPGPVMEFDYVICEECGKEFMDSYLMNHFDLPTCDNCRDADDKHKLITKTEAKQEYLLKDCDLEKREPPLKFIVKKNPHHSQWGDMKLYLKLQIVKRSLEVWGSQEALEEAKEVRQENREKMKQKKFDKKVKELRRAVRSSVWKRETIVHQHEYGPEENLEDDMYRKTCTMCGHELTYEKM

Row | Binder | binding result [1] | binding result [2]
1 | damaged duplex Fg/4 (dsDNA, strand 1 T23 = Flu-dUMP; strand 2 T30 = 5-iodo-dUMP) DNA 1: GTCGTTCGGAAGACCCTGACGTTGCCCAACTTAATCGCCTCGCCATAG DNA 2: CTATGGCGAGGCGATTAAGTTGGGCAACGTCAGGGTCTTCCGAACGAC | binds | 
2 | damaged duplex FI3/N (dsDNA, strand 1 T17 = 5-iodo-dUMP, T22 = Flu-dUMP) DNA 1: GTCGTTCGGAAGACCCTGACGTTACCCAACTTAATCGCCTCGCCATAG DNA 2: CTATGGCGAGGCGATTAAGTTGGGTAACGTCAGGGTCTTCCGAACGAC |  | binds
